Test results: article PMC9127371, “Assembly of nuclear dimers of PI3K regulatory subunits is regulated by the Cdc42-activated tyrosine kinase ACK” (The Journal of Biological Chemistry, 2022)
Square brackets hold non-standard residues; d marks the D form. Ends that are not written are not given here. * marks the point of attachment. 5FAM = O=C1OC2(c3ccc(O)cc3Oc3cc(O)ccc32)c2ccc(C(=O)*)cc21; pY = N[C@@H](Cc1ccc(OP(=O)(O)O)cc1)C(=O)O

T1: p85β cSH2 (603–712) (mouse, UniProt O08908 603-712)
T1 construct: PI3K regulatory subunit p85β, mouse, C-terminal SH2 domain, residues 603-712; also called cSH2 domain of p85β; source: E. coli, purified (glutathione-agarose, HRV 3C cleavage, S75 size exclusion)
T1 sequence (looked up): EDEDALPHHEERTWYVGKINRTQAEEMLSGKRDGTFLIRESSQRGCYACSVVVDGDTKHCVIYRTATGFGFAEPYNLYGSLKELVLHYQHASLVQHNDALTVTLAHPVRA


Tests used:
Assay in all cases: fluorescence polarisation; SH2 domain titrated into 5-FAM-labelled peptide (20 nM CD28, YSLV, pYSLV; 40 nM YSLM, pYSLM), 298 K, 96-well plates, single site binding isotherm
Settings in all cases: both partners purified
[1] = target: T2, p85α nSH2 (325–430) (human, UniProt P27986 325-430)
T2 construct: PI3K regulatory subunit p85α, human, N-terminal SH2 domain, residues 325-430; also called nSH2 domain of p85α; WT nSH2 domain of p85α; source: E. coli, purified (glutathione-agarose, HRV 3C cleavage, S75 size exclusion)
T2 sequence (P27986 325-430): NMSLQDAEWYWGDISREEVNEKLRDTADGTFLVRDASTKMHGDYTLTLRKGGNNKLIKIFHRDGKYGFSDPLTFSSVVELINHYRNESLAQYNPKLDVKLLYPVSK

[2] = target: T3, p85β nSH2 (312–425) (mouse, UniProt O08908 312-425)
T3 construct: PI3K regulatory subunit p85β, mouse, N-terminal SH2 domain, residues 312-425; also called nSH2 domain of p85β; WT nSH2 domain of p85β; source: E. coli, purified (Ni-NTA, HRV 3C cleavage, size exclusion); not shown: His6, N-terminal, cleaved; MBP, N-terminal, cleaved
T3 sequence (O08908 312-425): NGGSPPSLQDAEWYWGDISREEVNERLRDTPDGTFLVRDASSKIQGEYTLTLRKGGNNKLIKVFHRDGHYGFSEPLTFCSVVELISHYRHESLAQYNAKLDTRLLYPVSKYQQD

[3] = target: T4, p85α cSH2 (614–720) (human, UniProt P27986 614-720)
T4 construct: PI3K regulatory subunit p85α, human, C-terminal SH2 domain, residues 614-720; also called cSH2 domain of p85α; source: E. coli, purified (glutathione-agarose, HRV 3C cleavage, S75 size exclusion)
T4 sequence (P27986 614-720): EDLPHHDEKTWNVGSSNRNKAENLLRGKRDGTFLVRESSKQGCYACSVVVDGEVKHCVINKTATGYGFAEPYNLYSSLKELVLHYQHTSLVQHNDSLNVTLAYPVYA

[4] = target: T5, p85α nSH2 R358M (human, UniProt P27986 325-430, R358M)
T5 construct: PI3K regulatory subunit p85α, human, N-terminal SH2 domain, residues 325-430, with R358M; also called R358M variant; R358M SH2–null mutant; source: E. coli, purified
T5 sequence (P27986 325-430 R358M): as the sequence (P27986 325-430) above, with R34M counted along it

[5] = target: T1, p85β cSH2 (603–712)

| Binder | Kd [1] [µM] | Kd [2] [µM] | Kd [3] [µM] | Kd [4] [µM] | Kd [5] [µM] |
| --- | --- | --- | --- | --- | --- |
| 5FAM-TEDQ[pY]SLMEDE (also called β peptide; p85β (pYSLM) peptide; source: synthetic peptide; bought: Cambridge Research Biochemicals) [[5-FAM]-TEDQ-[pY]-SLMEDE, phosphorylated peptide based on p85β] | 0.082 | 0.052 | 0.656 | 2.9 | – |
| 5FAM-TEDQ[pY]SLVEDE (also called α peptide; p85α (pYSLV) peptide; source: synthetic peptide; bought: Biomatik) [[5-FAM]-TEDQ-[pY]-SLVEDE, phosphorylated peptide based on p85α] | 2.4 | 9 | 84 | – | – |
| 5FAM-SD[pY]MNMTP (Known p85 SH2 target peptide from CD28; also called control peptide from CD28; source: synthetic peptide; bought: Biomatik) [[5-FAM]-SD-[pY]-MNMTP, CD28 peptide] | – | – | 0.043 | – | 0.1 |
